Laboratory results as given in patent publication US20170226204A1.
Read-outs that look alike come from different tables or passages of the source.

What was measured:
[1] = biological target: human CD7 molecule (human) (UniProt P09564); assay: flow cytometry on H460 cells transfected with pcDNA3.1-CD7
[2] = biological target: human CD7 molecule (human) (UniProt P09564); assay: flow cytometry on CD7-positive Jurkat cells
[3] = biological target: human CD7 molecule (human) (UniProt P09564); assay: flow cytometry on H460 cells transfected with pcDNA3.1-CD7; remark: listed apart in the source

human CD7 molecule (human), sequence (P09564 26-240): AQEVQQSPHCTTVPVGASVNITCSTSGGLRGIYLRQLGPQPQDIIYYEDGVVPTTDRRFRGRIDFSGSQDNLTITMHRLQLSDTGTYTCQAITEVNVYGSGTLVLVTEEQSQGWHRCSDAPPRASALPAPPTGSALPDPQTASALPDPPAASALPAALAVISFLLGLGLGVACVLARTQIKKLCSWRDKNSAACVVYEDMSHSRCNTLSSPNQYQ

commercial CD7 antibody (BD CD7-PE)
transfection efficiency (percent of cells stained) [1]: 18.8% | positive rate of CD7+ [2]: 96.6% | transfection efficiency (percent of cells stained) [3]: 18%
